The Immune Epitope Database (IEDB)
One block for each sequence: values may come before it.

Assays:
[1] = target: HLA-A*02:03; assay: IEDB peptide-MHC binding, purified MHC/competitive/radioactivity; filed as Kd, often an IC50 or EC50 that approximates it; ≥ and ≤ were set here for values at or beyond the usual limits of such assays; details: source organism: Homo sapiens
[2] = target: HLA-A*02:02; assay: as above; details: source organism: Homo sapiens
[3] = target: HLA-A*02:06; assay: as above; details: source organism: Homo sapiens
[4] = target: HLA-A*02:01; assay: as above; details: source organism: Homo sapiens
[5] = target: HLA-A*68:02; assay: as above
[6] = target: HLA-B*07:02; assay: as above
[7] = target: HLA-B*44:02; assay: IEDB peptide-MHC binding, purified MHC/direct/fluorescence; filed as Kd, often an IC50 or EC50 that approximates it; ≥ and ≤ were set here for values at or beyond the usual limits of such assays
[8] = target: HLA-B*15:01; assay: as above
[9] = target: HLA-B*27:05; assay: as above
[10] = target: HLA-B*58:01; assay: as above
[11] = target: HLA-A*31:01; assay: as above
[12] = target: HLA-A*69:01; assay: as above
[13] = target: HLA-A*26:01; assay: as above
[14] = target: HLA-A*02:01; assay: as above
[15] = target: HLA-A*11:01; assay: as above
[16] = target: HLA-B*40:01; assay: as above
[17] = target: HLA-B*08:01; assay: as above
[18] = target: HLA-B*07:02; assay: as above
[19] = target: HLA-A*01:01; assay: as above
[20] = target: HLA-A*03:01; assay: as above
[21] = target: HLA-B*15:01; assay: IEDB peptide-MHC binding, purified MHC/competitive/fluorescence; ≥ and ≤ were set here for values at or beyond the usual limits of such assays
[22] = target: HLA-A*02:01; assay: as above
[23] = target: HLA-A*26:01; assay: IEDB peptide-MHC binding, purified MHC/competitive/radioactivity; filed as Kd, often an IC50 or EC50 that approximates it; ≥ and ≤ were set here for values at or beyond the usual limits of such assays; details: source organism: Dengue virus 4 Philippines/H241/1956
[24] = target: HLA-B*51:01; assay: as above; details: source organism: Dengue virus 4 Philippines/H241/1956
[25] = target: HLA-B*35:01; assay: as above; details: source organism: Dengue virus 4 Philippines/H241/1956
[26] = target: HLA-A*24:03; assay: IEDB peptide-MHC binding, purified MHC/direct/fluorescence; filed as Kd, often an IC50 or EC50 that approximates it; ≥ and ≤ were set here for values at or beyond the usual limits of such assays; details: source organism: Pasteurella multocida
[27] = target: HLA-A*24:02; assay: IEDB peptide-MHC binding, purified MHC/competitive/fluorescence; ≥ and ≤ were set here for values at or beyond the usual limits of such assays
[28] = target: HLA-B*53:01; assay: IEDB peptide-MHC binding, purified MHC/competitive/radioactivity; filed as Kd, often an IC50 or EC50 that approximates it; ≥ and ≤ were set here for values at or beyond the usual limits of such assays; details: source organism: Dengue virus 4 Philippines/H241/1956
[29] = source organism: Dengue virus 2 Jamaica/1409/1983
[30] = source organism: Shigella flexneri
[31] = source organism: Zaire ebolavirus
[32] = source organism: Dengue virus 4 Philippines/H241/1956
[33] = source organism: Histophilus somni
[34] = source organism: Sudan ebolavirus
[35] = source organism: Vibrio cholerae

- Kd [1]: 1.22 µM
- Kd [2]: 0.134 µM
- Kd [3]: ≥ 30.4 µM
- Kd [4]: 1.16 µM
- Kd ([5]; source organism: Homo sapiens): 0.0506 µM
Sequence: ELNDRLAVYI

Sequence: SPPPVGKAEL
- Kd [6, 29]: 0.0673 µM

Sequence: DRLHPPNKL
- Kd [7, 30]: ≥ 20 µM
- Kd [8, 30]: ≥ 20 µM
- Kd [9, 30]: ≥ 20 µM
- Kd [10, 30]: ≥ 20 µM
- Kd [11, 30]: ≥ 20 µM
- Kd [12, 30]: ≥ 20 µM
- Kd [13, 30]: ≥ 20 µM
- Kd [14, 30]: ≥ 20 µM
- Kd [15, 30]: ≥ 20 µM
- Kd [16, 30]: 4.25 µM
- Kd [17, 30]: ≥ 20 µM
- Kd [18, 30]: ≥ 20 µM
- Kd [19, 30]: ≥ 20 µM
- Kd [20, 30]: ≥ 20 µM

Sequence: GVPPKVVNY
- IC50 [21, 31]: ≥ 211 µM
- IC50 [22, 31]: ≥ 199 µM

Sequence: EVALLRTYCI
- Kd [23]: 6.17 µM
- Kd [5, 32]: 0.0297 µM

- Kd [4]: 0.232 µM
Sequence: GSFGDIYLA

Sequence: TSLSMTCIAV
- Kd ([5]; source organism: Dengue virus 1 Brazil/97-11/1997): 13.5 µM

Sequence: LPIRYQTPAV
- Kd [24]: 0.198 µM
- Kd [25]: 0.11 µM
- Kd [6, 32]: 0.0267 µM

Sequence: HTIENTSANL
- Kd [23]: ≥ 48.9 µM
- Kd [5, 32]: 0.015 µM

Sequence: LAANAICSAV
- Kd [5, 29]: 0.00904 µM

Sequence: TIAVSTANI
- Kd [5, 32]: 0.0256 µM

- Kd ([5]; source organism: Homo sapiens): ≥ 54.3 µM
Sequence: ELEKSKRAL

- Kd [8, 33]: ≥ 20 µM
- Kd [26]: 0.00192 µM
- Kd [9, 33]: ≥ 20 µM
- Kd [10, 33]: ≥ 20 µM
- Kd [12, 33]: ≥ 20 µM
- Kd [13, 33]: ≥ 20 µM
- Kd [14, 33]: ≥ 20 µM
- Kd ([15]; source organism: Pasteurella multocida): 2.82 µM
- Kd [16, 33]: ≥ 20 µM
- Kd [17, 33]: ≥ 20 µM
- Kd [18, 33]: ≥ 20 µM
- Kd [19, 33]: ≥ 20 µM
- Kd [20, 33]: ≥ 20 µM
Sequence: QYPAFVLFI

- Kd [4]: 1 µM
Sequence: GIGILTVIL

Sequence: AKHGEYAPF
- IC50 [21, 31]: ≥ 77.4 µM
- IC50 [27, 31]: 63.1 µM

Sequence: LMHNQDGLI
- IC50 [21, 31]: 67.4 µM
- IC50 [22, 31]: 1.72 µM
- IC50 [27, 31]: 24.6 µM

Sequence: IPVTMTLWYM
- Kd [28]: 0.0692 µM
- Kd [25]: 0.156 µM
- Kd [6, 32]: 0.744 µM

Sequence: LQSPPIREA
- IC50 [21, 34]: 37.8 µM
- IC50 [22, 34]: 14.3 µM

Sequence: SLAKHGEYA
- IC50 [21, 31]: ≥ 127 µM
- IC50 [22, 31]: 7.2 µM

Sequence: GQQFYWPVM
- IC50 [21, 31]: 1.52 µM
- IC50 [22, 31]: 5.74 µM
- IC50 [27, 31]: 0.114 µM

Sequence: AENKKFKLH
- Kd [7, 35]: ≥ 20 µM
- Kd [8, 35]: ≥ 20 µM
- Kd [9, 35]: ≥ 20 µM
- Kd [10, 35]: ≥ 20 µM
- Kd [11, 35]: ≥ 20 µM
- Kd [12, 35]: ≥ 20 µM
- Kd [13, 35]: ≥ 20 µM
- Kd [14, 35]: ≥ 20 µM
- Kd [15, 35]: ≥ 20 µM
- Kd [16, 35]: 2.71 µM
- Kd [17, 35]: ≥ 20 µM
- Kd [18, 35]: ≥ 20 µM
- Kd [19, 35]: ≥ 20 µM
- Kd [20, 35]: ≥ 20 µM

Sequence: LLQLPRDKF
- IC50 [21, 34]: 10.6 µM
- IC50 [22, 34]: 13.3 µM
- IC50 [27, 34]: 4.77 µM

- Kd [2]: 0.014 µM
- Kd [3]: 0.0614 µM
- Kd ([5]; source organism: Homo sapiens): 11.9 µM
Sequence: QLADETLLKV
